Data taken from the DeepSol protein solubility set.

Assay: soluble on expression in E. coli; label from the status in PepcDB or PDB records

Sequence	soluble on expression in E. coli
GMSVNGIEVAKPFIAATVNVLSTMAGIQPQPGKPYVKKNNVAKGDVSAVIGITGHKNGSISVTFTKSCAIALVKGMLGDDIQDILQDTKDAVGEVTNMISGQARAGLAEMGMVFQGSTPSVIMGDGHTISHVTKSPIMAIPFLTNHGEFTVEFCFE	soluble
AHHHHHHGSGGLALEGRSIVFASGKGGTGKTTTVANIGVALAQFGKEVILIDADITMANLSLILGMEDIPITLHDVLAGEAELKDAIYEGPAGVKVIPGGLSLEKVKKARPERLRELIKEISQMGDFILIDAPAGLELTSVTALLIGKELIIVTNPEISAITDSLKTKLVAEKLGTLPLGAILNRVTSEKTELSKEEIEAILEVPVIGIVPEDPEVKRASAYGVPLVIKNPTSPAAIAYKQIAAKLAGIKWTPPEPESPVKRIFKALFGGKR	soluble
MNSRIETFHQMEWHFFSLISMELLSLEGLKACNSGMPIPALNPVFYSGKSTLLVAEIYQCKRFYESHSVPWALMVPDYLSDTKTDNVLAQSGFLSIDQGVAMYLSIQDLGMPGFKSDLLIKRMDNEMETWILPTIPAFESTAEIAKIYRVRHQEAIEKSSDIYHFSGFIQEQIVCSLTLTVMGDCARIDDVATFPKYQKNGYATQLILSELQILKDTNISWCFLEASADGLNIYKKIGFRELFKNLYYEEQYHYEQN	not soluble
DWEVETGERYLPKLPECKIDNSKYQHPIQVVPSGPGMPEYLIYQVLTLAINQANRSVRITTPYFVPNTDLLETLKMTAQRGIDVELIIPHKNDSLMVQWASRAFYSELLAAGVKIYEFYGGLLHTKSVVIDDQFCLVGTVNMDMRSLWLNFEVTLAVDDEEFTKQLSWLQDGYIKQSHPVVLDEWEKRSLYSRFLERVFYLFNPLL	not soluble
MAHHHHHHMSIIHYSLQYNCKSFCIFTYFLIPSYWKCSTYNIPQYRSQNKNNFISFCIQFLVQQCVLIIHKVFNLPNTSLRNYFPQINKQINNQTFLNVVVKRKLNHGKLWGAHV	soluble
MGSDKIHHHHHHDLEEYRTTPKMVINSAFSPDTVVMASISRTWFHSESKPDVTIRNAKVELYIDGIFKEEMPWKEYSYWKSSRWLGEDRGGWVTDTLYISNTVPQPGQTVKIVASTPEYGTASAEDKIPSKTEIKGLRIIPRKEATGNGGTLVDGDGNISYIEENDVLIYQITFQDTPGKSNYYSLQIWGDDDHLGVLLDFSVDPVFTQQQGILDEVFGSSMVNWRGRVFSDELFDGKEYTLQVKEQLRSDTKYYTKRHIRLYSLSEPYYQYLLSLQNIKNEGIMGGLTNVGLAEPVRIYSNVEGGTGIAGGCQWFESLVDIKDLIK	not soluble
MIKKWLSVALISTAAMMPHTTFASDTLLQKAQQENRQQQTHNASRESGFKKTEQELQAIKNKLVAERAALQAEADTLSVTFSENEAELAQLEEKLRLETGSLGELFGVVRQNAKELESELKHAVTGVDANSYQKDIEAIVAAKSLPTLKQLQAMWRSMEEQVTASGELAKVSFTLLDGEGKEQTVNGVRLGAMALLDDNGYVKWNGQRGDAVNYLRQPENGPTASAFTNGELDSLVIDPSRGILLEQLANSPTLKDRLNAGGVVGQ	not soluble
MGFSDLRDKVVIVTGASMGIGRAIAERFVDEGSKVIDLSIHDPGEAKYDHIECDVTNPDQVKASIDHIFKEYGSISVLVNNAGIESYGKIESMSMGEWRRIIDVNLFGYYYASKFAIPYMIRSRDPSIVNISSVQASIITKNASAYVTSKHAVIGLTKSIALDYAPLLRCNAVCPATIDTPLVRKAAELEVGSDPMRIEKKISEWGHEHPMQRIGKPQEVASAVAFLASREASFITGTCLYVDGGLSIRAPISTPELEHHHHHH	soluble
MSLTIYHPAELPQRQAEKSPNKTIIKYYDRESKQWRNISWSKFAAGVMNAAKALAEIGLESGERIGIYSPNMVHCLYTELGAFAMRGVVVPLYATSSPEQLRFIVEDSSMETLFVGEQFQYNNAYRVQKEYGTLKRIVVFDERVVLNPEDKTSKYFSEFVRLGDSMPNETKVKVSSREAIPSDPALIIYTSGTSGRSKGVLLLHSNLMYQMKVHSEHIPVYGPGELSIAFLPMSHIFEKAWTLFCLTTGTRIAILRDPKKVLEALPQIRPSLMCNVPRFWEKVYQGVNEKMASSPRILKGVYRRAMAVGQRYRLDYWNEGKRAPLLLSMQYAFYNCTIFTLLKRVLGLQRGRYFPTAGAPLSDEINIFLQSVNIPIIVGYGLSETTATVSFYPQRGFKIGSMGKVMPGLDARIDPDNNEILVKGESVMSEYYNLPEETAGAFTPDGYFRTGDAGRMDPDGTLYFLERIKDLYKTANGKYIAPQMIEGMLTKDPIIEQIAVIGDRFKYVSALVYPNWELVRQAAIKRGLEQARTMSVDEMAANPEINRLMMARIEAAQDSLAAYEKVKYITLLAEPFTLEKGELTETMKLKRRVINEHYAEAIEKMYEGHHHHHH	soluble
SLPSAQAPSLLNPTDDFAALGNIAWLWMNSPMHRDWPVHLLARNTLAPIQLGQYILLRCNDVPVAYCSWALMDADTELSYVMAPSSLGGNAWNCGDRLWIIDWIAPFSRDDNRALRRALAERHPDSVGRSLRVRRGGDTARVKEYRGRALDAAAARAQLDRYHAELIAGLRASNGGYAPR	soluble
MGHHHHHHSHMQQAPVVLSTLDKLLNWGRSNSLWPLTYGLACCAIEMMATGGSRFDFDRFGTIFRASPRQSDVMIIAGTLTKKHAEFMRRLYDQMPEPKWVISMGSCANTGGMFNTYATVQGADRVVPVDIYLPGCAPRPETLQYALMVLQDKIRRSKAIKQDAPKRLV	not soluble
MLLQVHRLLFEKFYPWAGRDRLELVPHLSVWKGPKGAPRRTFFESPAMIERAVDYALSLASKKQGFMQKPGEVMGLLCFAHPFLDGNGRSILLFYMELSYRAGFAIDWASTRKDDYLQALDDEIHNPGKGHL	soluble
MGSDKIHHHHHHMKYISPGDWFSLEYPMGWHEFEDTEESFLFYNPDRWTGNFRISAYKDEAADYGPQCIAYELKENTSSALVKVGKWDCAYSAETFQEEGAWYTTHIWVTGEGDLSFECSFTVSKGGDKHPAEEIIRSLQVRKEGVSHPREIIPIRVLEIGEVNTAFEWASTTIKKQLTKDFTASESDIDSIQQVMDSGRFQTQQRMAWENFGIAFGAILVNEMEGMEWVTVIEGQKEYPALQFMCSDMVLDPAALVWGKAKKGLPCDLKSEFRKIKREAEAVLDDLNK	not soluble
MSDIEAVVVSDLHLGYEEEMNLHGLFLPRIQRDHITSVMDRIIERYNPQRIIINGDFKQEFSKNLPSEWTDVLYFIDRYDDRDLIFIRGNHDNYLATILSKKNIGMMDFYEDDRYFIYHGDRNMGIKKITILGHEHPSLVLRDRVGGVYKLPAFAFNFRRNVIITPSMSFFSSGTDLSQSLLSEEHFTPALKGMKPSCFRIFAITDEFGLVDFGYLDDLHSSGEQQIRDR	not soluble
MGSDKIHHHHHHMQELLCDRGKGRHADPMQNKPDTPPLSRFHQFRTADLDEARALVARNFCGHRLERQAREDAFDACQNRAGGNGLFYNYIRYGADVEIEPGELGSFYLIQVPIRGQALIRNGRTEVETGSAIASVLNPDRHTRMRWLAGCEQVLLQIDRNRLTAVAETLTGTALQSPVRFDPQIDRARPEMQRWLALFRRAVSAVDHGALLDPDQALSRALVEDELIAGFLRAQPSSIAPLLERPETGPLSPHVRRARDFMQAHLADPLTLSQIAAAAGTSPRNLQLGFSQLLEMTPLAYLRVLRLNYARYLLRESPPQVTIASIAGAAGFSHLGRFSAQYAARFGEGPSQTRKQHYLI	not soluble
MSYYHHHHHHDYDIPTTGNLYFQGAMVAISFRPTADLVDDIGPDVRSCDLQFRQFGGRSQFAGPISTVRCFQDNALLKSVLSQPSAGGVLVIDGAGSLHTALVGDVIAELARSTGWTGLIVHGAVRDAAALRGIDIGIKALGTNPRKSTKTGAGERDVEITLGGVTFVPGDIAYSDDDGIIVV	soluble
MAHHHHHHMDTEAIKETAIREVCELSKTLKGTPFAITQRWKHIEALISTFERLLRRLELINLLCCEDEDSVSILKLYTQSQIASLEVLMKALMERGPNAAAFAAYAAGRLDEFVAVFTQSVGKTPRTNACVIADSGMRRWDQAAANGCEHNVVGNAAQNFLDLEVLLKTTLLTRGNQKGESKQCPLTKSDLSGYATVDDAPDRIKWAGGLLTVHKMYGWKEDGWSTNGRNVEFIKEAAEQFKEIKKVLEKQLPNGLDSIDALNAFLKREEPDAMMKDAIKTHQGWEEEKDDKTIIEKIKEIFGIGEPCAKIEFIETLIRTNVSARESGCTKQIDLFQLTTRQMEEVKERRLDQLRKTKTEAENYPRDMAKLSALKTNTNTKQGEYGECQFLCKRYKNAKAENEATDAAPNSPAAARKCRGKTENDCKDECKWDGNVCKNSDETSDYSRVCYSPLFPVLLLSLF	not soluble
MGSDKIHHHHHHMQFGAKPLFENISVKFGGGNRYGLIGANGCGKSTFMKILCGDLDPSGGNVSLDVNERLGKLSQNQFGYEEFNLIDTVIMGHRELWKVKQERDRIYSLPEMSEEDGITVANLEMDFAEMDGYTAESRAGELLLGVGIGIDSHFGLMSEIAPGLKLRVLLAQALFSDPDVLLLDEPTNNLDIDTIRWLQDMLNQRSSTMVIISHDRYFLNSVCTHMADLDYGELRVYPGNYDEYMQAATQARERLLSDNAKKKAQISELQTFVARFSANASKAKQATSRARQIDKIKLDEVKASSRVNPFIRFEQEKKLFRNALVIENLTKGYDTPLFKDLNLIVEVGERIAVLGENGVGKTTLLRTLIHDIPQDAGTIQWSENANIGYYAQDHESDFANEMTLFEWMSQWRKPEDDDQSVRGILGRMLFGSDDIKKSVKVLSGGEKGRMLFGKLIMQKANILVLDEPTNHMDMESIESLNNALEMYEGTLIFVSHDRAFVSSLANRILEVTHTGVNDFRGTYDEFLASKGIEV	not soluble
MGSDKIHHHHHHMETLILTQEEVESLISMDEAMNAVEEAFRLYALGKAQMPPKVYLEFEKGDLRAMPAHLMGYAGLKWVNSHPGNPDKGLPTVMALMILNSPETGFPLAVMDATYTTSLRTGAAGGIAAKYLARKNSSVFGFIGCGTQAYFQLEALRRVFDIGEVKAYDVREKAAKKFVSYCEDRGISASVQPAEEASRCDVLVTTTPSRKPVVKAEWVEEGTHINAIGADGPGKQELDVEILKKAKIVVDDLEQAKHGGEINVAVSKGVIGVEDVHATIGEVIAGLKDGRESDEEITIFDSTGLAIQDVAVAKVVYENALSKNVGSKIKFFRI	soluble
MGSDKIHHHHHHMARHALMRTELLPTFGMPDKKVDGFIARIRERHPKMIFGYPSAMSHIVPCAEQRGVRFDDLGIKVVFCTSERLYNHQRETIVRLFGCPVANGYGGRDAGFIAHECPNGNMHVITEDIVVEIIGEAGRVLPHRQSGKIVVTHLATRDYPFIRYRTGDIASLSEETCSCGRGLPLLTDIQGRNTDFVVAAEGTVLHGLALIYVVHDLNEVRTFKIVRKNREHTRILLAPEAGGDMTGIDTIIIDGFRCRLGAKVTVKFVDAVLAEKSGKFCYVASHVVLH	not soluble
MSLGFHEFSSPYDWSRIASYKRTAKAAFGGMVDLSVGSPVDPVPDSVRKALAVSSNDPNAYGYPVTAGTADLRDAIHEWFAAARNVDLRAIGADAVPTVGSKEGVALMASLLHFGEGDVVVQPKVSYPTYEIGTQLAGAQTLKVDDVADADSWKDVPGVKAVWVNSPCNPTGEVLSAEQMAGIVRAARAIGAVVLSDECYALMQWEDDVAEADADTLASTPCALRADVCGGSAEGVLVLYSLSKQSNMAGYRTALIAGDQSLIGPMAAYRKQIGQIIPGPVQAAMAAGLRDFDAVKTQHSRYQERLGMLVSALRAYGYCTDMPQGALYVWVKAKSGDCWEDLRQLAEIGIVASPGEFYGAPEYLRFSATASDAAIASAAERLAREGHHHHHH	soluble
